Data from patent US20030166009A1 (MERCK, published 2003).
Where two headings read alike, the source gives them in different places. Where no end group is shown, it is not given here.

Key:
[1] = target: T1, human MC5 receptor (human, UniProt P33032 1-325)
T1 construct: whole, on cells; It was tested as crude membranes prepared from cells expressing the receptor; also called hMC-5R

[2] = target: rhesus melanocortin-4 receptor protein (rhesus monkey (Macaca mulatta))
[3] = target: T2, human MC4 receptor (human, UniProt P32245 1-332)
T2 construct: whole, on cells; It was tested as crude membranes prepared from cells expressing the receptor; also called hMC-4R

[4] = target: T3, human MC3 receptor (human, UniProt P41968 1-323)
T3 construct: whole, on cells; It was tested as crude membranes prepared from cells expressing the receptor; also called hMC-3R

[5] = target: T4, rhesus melanocortin-4 receptor protein (rhesus monkey (Macaca mulatta), UniProt Q8HXX3 1-332 (cynomolgus entry))
T4 construct: This is the full-length 332 amino acid receptor encoded by pVE3099; also called rhMC-4R; rhesus MC-4R
Description: (§1) Reactions were incubated for 1 hour without shaking and then filtered through 96-well filter plates (Packard corp.). Filters were washed three times with TNE buffer (50 mM Tris pH 7.4, 5 mM EDTA, 150 mM NaCl), dried and counted using Microscint-20 in a Topcount scintillation counter (Packard).
(§2) Membranes prepared from rhesus MC-4R transfected cells were evaluated alongside membranes prepared from human MC-4R, MC-4R, and MC-5R expressing cells.

[6] = target: T1, human MC5 receptor; remark: listed apart in the source
Description: as §1, §2

[7] = target: T3, human MC3 receptor; remark: listed apart in the source
Description: as §1, §2

[8] = target: T2, human MC4 receptor; remark: listed apart in the source
Description: as §1, §2

T2 sequence (P32245 whole entry): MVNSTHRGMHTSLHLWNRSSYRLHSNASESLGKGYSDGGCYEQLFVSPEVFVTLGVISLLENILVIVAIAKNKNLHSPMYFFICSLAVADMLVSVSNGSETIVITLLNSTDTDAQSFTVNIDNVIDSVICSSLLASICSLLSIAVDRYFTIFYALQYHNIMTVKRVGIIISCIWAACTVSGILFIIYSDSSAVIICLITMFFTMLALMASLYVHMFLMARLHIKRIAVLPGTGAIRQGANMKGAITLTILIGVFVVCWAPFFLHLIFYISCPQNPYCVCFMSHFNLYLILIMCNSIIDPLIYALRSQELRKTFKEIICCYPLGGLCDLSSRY
rhesus melanocortin-4 receptor protein (rhesus monkey (Macaca mulatta)), sequence (Q8HXX3 whole entry R167G): as the sequence (P32245 whole entry) above, with T11A, Y21H, A114T, I296V counted along it
T4 sequence (Q8HXX3 whole entry R167G): as the sequence (P32245 whole entry) above, with T11A, Y21H, A114T, I296V counted along it
T3 sequence (P41968 whole entry): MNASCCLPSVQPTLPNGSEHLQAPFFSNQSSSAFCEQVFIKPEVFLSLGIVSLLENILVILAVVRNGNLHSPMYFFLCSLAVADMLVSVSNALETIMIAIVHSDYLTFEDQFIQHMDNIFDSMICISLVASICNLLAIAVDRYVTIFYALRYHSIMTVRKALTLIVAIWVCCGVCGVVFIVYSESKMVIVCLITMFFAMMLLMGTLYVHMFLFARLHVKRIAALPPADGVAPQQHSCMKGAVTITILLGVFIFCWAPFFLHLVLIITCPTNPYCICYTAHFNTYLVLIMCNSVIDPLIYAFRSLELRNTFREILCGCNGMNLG
T1 sequence (P33032 whole entry): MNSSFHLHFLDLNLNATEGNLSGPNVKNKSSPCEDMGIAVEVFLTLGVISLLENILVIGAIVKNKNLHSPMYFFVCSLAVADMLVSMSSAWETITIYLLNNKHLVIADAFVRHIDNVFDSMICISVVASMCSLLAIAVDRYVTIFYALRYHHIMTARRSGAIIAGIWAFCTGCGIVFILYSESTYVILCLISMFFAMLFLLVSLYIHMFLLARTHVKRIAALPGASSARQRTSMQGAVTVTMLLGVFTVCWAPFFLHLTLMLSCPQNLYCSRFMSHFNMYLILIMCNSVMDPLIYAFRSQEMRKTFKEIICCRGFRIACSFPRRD

Row | Molecule | IC50 [1] | IC50 [2] | IC50 [3] | IC50 [4] | IC50 [5] | IC50 [6] | IC50 [7] | IC50 [8]
1 | NDP-alpha-MSH (peptide) | 400 pM | 1300 pM | 600 pM | 600 pM | – | – | – | –
2 | SHU-9119 (peptide) | 100 pM | 200 pM | 100 pM | 300 pM | – | – | – | –
3 | MTII (peptide) | 900 pM | 100 pM | 100 pM | – | – | – | – | –
4 | SYSMEHFRWGKPV (peptide, UniProt P01189 138-150, looked up, domain: alpha MSH; The peptide is only a part of it; also called α-MSH; α-melanocyte stimulating hormone) [Alpha MSH] | – | – | – | – | 27000 pM | – | – | –
5 | DEGPYRMEHFRWGSPPKD (peptide, UniProt P01189 217-234, looked up, domain: beta MSH; The peptide is only a part of it; also called β-MSH) [Beta MSH] | – | – | – | – | 23000 pM | 166000 pM | 23000 pM | –
6 | YVMGHFRWDRF (peptide, UniProt P01189 77-87, looked up, ends and bridges not checked, domain: gamma MSH; The peptide is only a part of it; also called γ-MSH) [Gamma MSH] | – | – | – | – | 211000 pM | – | – | –
7 | SYSMEHFRWGKPVGKKRRPVKVYPNGAEDESAEAFPLEF (peptide, UniProt P01189 138-176, looked up, domain: ACTH1-39; The numbers 1-39 count on the ACTH peptide, not on the precursor) [ACTH1-39] | – | – | – | – | 1300 pM | 400 pM | 6000 pM | 6000 pM
